According to paper PMC5002451:
Where two headings read alike, the source gives them in different places.

T1: RIG-I (human, UniProt O95786 1-925)
T1 sequence: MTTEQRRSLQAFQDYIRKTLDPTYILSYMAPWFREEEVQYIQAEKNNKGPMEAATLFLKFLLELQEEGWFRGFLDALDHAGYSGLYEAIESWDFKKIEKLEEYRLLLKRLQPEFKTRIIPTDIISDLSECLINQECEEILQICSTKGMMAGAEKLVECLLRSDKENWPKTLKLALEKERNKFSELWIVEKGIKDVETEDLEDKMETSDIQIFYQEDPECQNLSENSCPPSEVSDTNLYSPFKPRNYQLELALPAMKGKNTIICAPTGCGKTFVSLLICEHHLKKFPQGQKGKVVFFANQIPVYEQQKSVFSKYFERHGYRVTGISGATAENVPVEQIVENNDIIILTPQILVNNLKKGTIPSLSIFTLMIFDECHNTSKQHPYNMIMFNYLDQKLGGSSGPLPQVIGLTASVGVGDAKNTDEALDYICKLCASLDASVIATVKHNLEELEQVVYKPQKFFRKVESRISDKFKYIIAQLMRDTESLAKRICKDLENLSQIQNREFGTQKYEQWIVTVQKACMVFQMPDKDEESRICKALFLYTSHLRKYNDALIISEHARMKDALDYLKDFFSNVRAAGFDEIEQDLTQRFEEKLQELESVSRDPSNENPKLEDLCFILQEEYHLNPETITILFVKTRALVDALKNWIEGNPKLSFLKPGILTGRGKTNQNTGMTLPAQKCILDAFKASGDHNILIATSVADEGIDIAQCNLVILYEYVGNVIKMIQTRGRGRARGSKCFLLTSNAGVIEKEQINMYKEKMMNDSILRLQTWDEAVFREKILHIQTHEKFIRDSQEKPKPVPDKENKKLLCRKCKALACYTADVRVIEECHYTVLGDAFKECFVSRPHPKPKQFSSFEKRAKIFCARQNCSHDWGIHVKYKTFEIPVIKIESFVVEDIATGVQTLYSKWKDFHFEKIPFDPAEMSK

B1: 47R/25RI (dsRNA)
RNA 1: GGAAAAUGUAAAUGACAUAGGCGCGCUGAAAGGGAGAAGUGAAAGUG
RNA 2: CGCGCCUAUGUCAUUUACAUUUUCC
modifications: 5'-OH
B2: 3P-47R/25RI (dsRNA)
RNA 1: B1 RNA 1
RNA 2: CGCGCCUAUGUCAUUUACAUUUUCC
modifications: 5'-triphosphate (on 47R, implied by name)
B3: 3P-47R/25DI (DNA:RNA)
RNA: B1 RNA 1
DNA: CACTTTCACTTCTCCCTTTCAGCGC
modifications: 5'-triphosphate (on 47R, implied by name)

Columns and labels:
[1] = target: T1, RIG-I; test: EMSA
[2] = target: T1, RIG-I; test: EMSA; remark: listed apart in the source

Binder	binding result [1]	binding result [2]
B1	binds	–
B2	–	binds
B3	–	binds
